Test results published in US20240116985A1 (published 2024).
Starred links: 1 amine or outer side, 2 acyl side, 3 side chain; linkers in the order of their positions; H or OH if unused. Positions of bridges follow the written chain, without caps; N, C: chain ends. Non-standard residues stand in square brackets, D forms with d. Primed or numbered codes have the meaning given here. B5(29) = 2-amino-2-(pent-4-en-1-yl)hept-6-enoic acid (2,2-bis(4-pentenyl)glycine), stitching residue bearing both staples, C=CCCCC(CCCC=C)(N[*:1])C(=O)[*:2]; PyrS2″ = (S)-3-amino-1-((pent-4-en-1-yloxy)carbonyl)pyrrolidine-3-carboxylic acid (stapling residue), C=CCCCOC(=O)N1CC[C@@](N[*:1])(C(=O)[*:2])C1; B5(17) = 2,2-bis(4-pentenyl)glycine = 2-amino-2-(pent-4-en-1-yl)hept-6-enoic acid, stitching residue, C=CCCCC(CCCC=C)(N[*:1])C(=O)[*:2]; B5(5) = 2,2-bis(4-pentenyl)glycine, 2-amino-2-(pent-4-en-1-yl)hept-6-enoic acid (stitching residue), C=CCCCC(CCCC=C)(N[*:1])C(=O)[*:2]; B5(6) = 2-amino-2-(pent-4-en-1-yl)hept-6-enoic acid (bis(4-pentenyl)glycine), stitching residue, C=CCCCC(CCCC=C)(N[*:1])C(=O)[*:2]; TfeGA = (S)-2-amino-3-((carboxymethyl)(2,2,2-trifluoroethyl)amino)propanoic acid, O=C([C@H](CN(CC(=O)[*:3])CC(F)(F)F)N[*:1])[*:2]; PyrS2 = (S)-3-amino-1-((pent-4-en-1-yloxy)carbonyl)pyrrolidine-3-carboxylic acid, C=CCCCOC(=O)N1CC[C@@](N[*:1])(C(=O)[*:2])C1; B5(19) = 2-amino-2-(pent-4-en-1-yl)hept-6-enoic acid (bis(4-pentenyl)glycine), C=CCCCC(CCCC=C)(N[*:1])C(=O)[*:2]; B5(3) = 2,2-bis(4-pentenyl)glycine (stitching residue), C=CCCCC(CCCC=C)(N[*:1])C(=O)[*:2]; Phe(F5) = N[C@@H](Cc1c(F)c(F)c(F)c(F)c1F)C(=O)O; hLeu(5-Me) = CC(C)(C)CC[C@H](N)C(=O)O; Bta = N[C@@H](Cc1csc2ccccc12)C(=O)O; hTyr = N[C@@H](CCc1ccc(O)cc1)C(=O)O; αAllylPro = C=CC[C@@]1(C(=O)O)CCCN1; tBuAla = CC(C)(C)C[C@H](N)C(=O)O; 3Thi = N[C@@H](Cc1ccsc1)C(=O)O; Cha = N[C@@H](CC1CCCCC1)C(=O)O; S8 = C=CCCCCCC[C@](C)(N)C(=O)O; PyrS2(4) = not defined here; TfeGA″ = not defined here; hSer = N[C@@H](CCO)C(=O)O; Nle = CCCC[C@H](N)C(=O)O

The binders below were run against T1, full-length beta-Catenin (Uniprot ID P35222) (Homo sapiens (Human), UniProt P35222 2-781) (assay: fluorescence polarization competition; full-length beta-catenin with 5FAM-TCF4(10-53) probe as competitor).
T1 construct: No tag is stated for the FP assay; also called bCat; B-Catenin
T1 sequence: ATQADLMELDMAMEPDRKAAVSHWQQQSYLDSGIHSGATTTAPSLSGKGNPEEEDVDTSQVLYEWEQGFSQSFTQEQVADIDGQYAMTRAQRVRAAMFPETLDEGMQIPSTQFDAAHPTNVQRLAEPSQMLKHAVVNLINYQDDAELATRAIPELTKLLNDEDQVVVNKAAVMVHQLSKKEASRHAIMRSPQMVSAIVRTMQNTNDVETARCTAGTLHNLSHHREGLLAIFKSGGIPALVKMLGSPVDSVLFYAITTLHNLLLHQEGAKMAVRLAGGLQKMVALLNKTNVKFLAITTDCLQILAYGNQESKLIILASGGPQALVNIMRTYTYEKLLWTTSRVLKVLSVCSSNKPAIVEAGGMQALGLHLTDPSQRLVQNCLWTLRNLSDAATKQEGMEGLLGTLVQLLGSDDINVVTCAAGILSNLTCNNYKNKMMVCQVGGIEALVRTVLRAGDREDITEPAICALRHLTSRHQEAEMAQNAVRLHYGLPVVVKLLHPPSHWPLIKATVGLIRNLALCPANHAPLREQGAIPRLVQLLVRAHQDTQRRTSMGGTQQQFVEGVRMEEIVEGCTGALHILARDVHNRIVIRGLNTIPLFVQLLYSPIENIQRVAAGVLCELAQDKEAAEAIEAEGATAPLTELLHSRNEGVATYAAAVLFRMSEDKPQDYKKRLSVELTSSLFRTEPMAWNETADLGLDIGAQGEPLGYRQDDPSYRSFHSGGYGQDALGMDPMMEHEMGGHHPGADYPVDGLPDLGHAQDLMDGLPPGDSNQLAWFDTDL
Method: The plate was incubated protected from light for 60 minutes at 20° C. prior to read. Reads were performed on a CLARIOstar plate reader (BMG Labtech) in duplicate, and data were fitted to a 1:1 binding model with hill slope using an in-house script. All provided concentrations are final concentrations.

| Binder | IC50 |
| --- | --- |
| XDAXDEAAFQXFXQ (not fully specified; Ac-PL3-Asp-Ala-B5-Asp-Glu-Ala-Ala-Phe-Gln-S8-Phe-BztA-DGIn-NH2 (so in the source); D-Gln at 14); N-terminal acetyl, C-terminal amide; PL3(1)-B5(4) and B5(4)-S8(11) stapled by olefin metathesis; BztA at 13, Stapled (stitched) peptide composition) [I-494] | 0.082 µM |
| Ac-[αAllylPro]DT[B5(29)]DEAAFQ[S8]F[Bta]Q-NH2 (staple 1-4, 4-11, Stapled (stitched) peptide composition) [I-477] | 0.119 µM |
| Ac-[αAllylPro]DA[B5(17)]DEAAFQ[S8]F[Bta][hSer]-NH2 (staple 1-4, 4-11; also: earlier eluting HPLC peak, E/Z not assigned, Stapled peptide; this is the earlier eluting HPLC peak (staple isomer composition)) [I-491] | 0.153 µM |
| Ac-[αAllylPro]DA[B5(17)]DEAAFQ[S8]F[Bta][hSer]-NH2 (staple 1-4, 4-11; also: later eluting HPLC peak, E/Z not assigned, Stapled peptide; this is the later eluting HPLC peak (staple isomer composition)) [I-492] | 0.053 µM |
| XDAXDEAAFQXFXS (not fully specified; Ac-PL3-Asp-Ala-B5-Asp-Glu-Ala-Ala-Phe-Gln-S8-Phe-BztA-DSer-NH2; N-terminal acetyl, C-terminal amide; PL3(1)-B5(4) and B5(4)-S8(11) stapled by olefin metathesis; BztA at 13; D-Ser at 14, Stapled (stitched) peptide composition) [I-493] | 0.088 µM |
| Ac-[αAllylPro]DA[B5(17)][hSer]EAAFQ[S8]F[Bta]Q-NH2 (staple 1-4, 4-11; not fully specified; printed as Ac-PL3-Asp-Ala-B5-Hse-Glu-Ala-Ala-Phe-Gln-S8-Phe-BztA-Gln-NH2, Stapled peptide; this is the first eluting HPLC peak (staple isomer composition)) [I-496] | 5 µM |
| Ac-[αAllylPro]DI[B5(29)]DEAAFN[S8]F[Bta]H-NH2 (staple 1-4, 4-11, Stapled (stitched) peptide composition) [I-472] | 0.062 µM |
| XDAXDEAAFNXFXH (not fully specified; Ac-PL3-Asp-Ala-B5-Asp-Glu-Ala-Ala-Phe-Asn-S8-Phe-BztA-1MeH-NH2; N-terminal acetyl, C-terminal amide; PL3(1)-B5(4) and B5(4)-S8(11) stapled by olefin metathesis; BztA at 13; 1MeH at 14, Stapled peptide; this is the later eluting HPLC peak (staple isomer composition)) [I-479] | 0.027 µM |
| XDIXDEAAFNXFXQ (not fully specified; Ac-PL3-Asp-aIle-B5-Asp-Glu-Ala-Ala-Phe-Asn-S8-Phe-BztA-Gln-NH2; N-terminal acetyl, C-terminal amide; PL3(1)-B5(4) and B5(4)-S8(11) stapled by olefin metathesis; aIle at 3; BztA at 13, Stapled peptide; this is the earlier eluting HPLC peak (staple isomer composition)) [I-475] | 0.102 µM |
| Ac-[αAllylPro]DI[B5(6)]DEAAFQ[S8]F[Bta]H-NH2 (staple 1-4, 4-11, Stapled (stitched) peptide composition) [I-471] | 0.052 µM |
| XDIXDEAAFQXFXN (not fully specified; Ac-PL3-Asp-Ile-B5-Asp-Glu-Ala-Ala-Phe-Gln-S8-Phe-BztA-Asn-NH2; N-terminal acetyl, C-terminal amide; PL3(1)-B5(4) and B5(4)-S8(11) stapled by olefin metathesis; BztA at 13, Stapled (stitched) peptide composition) [I-495] | 0.181 µM |
| XDIXDEAAFNXFXQ (not fully specified; Ac-PL3-Asp-aIle-B5-Asp-Glu-Ala-Ala-Phe-Asn-S8-Phe-BztA-Gln-NH2; N-terminal acetyl, C-terminal amide; PL3(1)-B5(4) and B5(4)-S8(11) stapled by olefin metathesis; aIle at 3; BztA at 13, Stapled peptide; this is the later eluting HPLC peak (staple isomer composition)) [I-476] | 0.048 µM |
| XDAXDEAAFNXFXH (not fully specified; Ac-PL3-Asp-Ala-B5-Asp-Glu-Ala-Ala-Phe-Asn-S8-Phe-BztA-1MeH-NH2; N-terminal acetyl, C-terminal amide; PL3(1)-B5(4) and B5(4)-S8(11) stapled by olefin metathesis; BztA at 13; 1MeH at 14, Stapled peptide; this is the earlier eluting HPLC peak (staple isomer composition)) [I-478] | 0.071 µM |

What follows are binders tested against T2, B-cat-Halo (UniProt P35222 2-781) (assay: cell-based or functional assay).
T2 sequence (looked up): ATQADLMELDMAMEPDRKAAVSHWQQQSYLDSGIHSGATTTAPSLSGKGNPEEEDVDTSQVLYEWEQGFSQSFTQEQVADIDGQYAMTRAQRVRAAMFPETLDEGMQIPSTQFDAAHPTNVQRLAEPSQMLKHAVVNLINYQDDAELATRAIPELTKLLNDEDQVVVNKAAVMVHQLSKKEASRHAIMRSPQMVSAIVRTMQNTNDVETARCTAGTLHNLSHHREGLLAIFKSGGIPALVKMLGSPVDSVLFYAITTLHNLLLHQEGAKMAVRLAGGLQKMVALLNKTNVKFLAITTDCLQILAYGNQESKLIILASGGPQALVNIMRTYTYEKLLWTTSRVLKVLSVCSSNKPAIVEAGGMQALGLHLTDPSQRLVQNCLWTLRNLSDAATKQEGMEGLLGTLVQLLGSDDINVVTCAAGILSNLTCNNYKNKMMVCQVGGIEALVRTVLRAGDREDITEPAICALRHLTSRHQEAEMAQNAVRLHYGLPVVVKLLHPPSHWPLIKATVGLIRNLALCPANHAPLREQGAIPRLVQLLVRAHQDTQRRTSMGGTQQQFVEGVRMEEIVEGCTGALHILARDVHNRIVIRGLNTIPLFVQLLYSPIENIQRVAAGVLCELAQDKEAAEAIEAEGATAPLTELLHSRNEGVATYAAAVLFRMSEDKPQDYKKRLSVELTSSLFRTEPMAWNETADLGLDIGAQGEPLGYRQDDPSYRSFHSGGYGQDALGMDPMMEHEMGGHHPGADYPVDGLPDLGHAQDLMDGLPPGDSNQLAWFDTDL

| Binder | NanoBRET Abs IC50 |
| --- | --- |
| Ac-[αAllylPro]D[tBuAla][B5(19)]D[hTyr]AAFN[PyrS2][3Thi][Bta]Q-NH2 (staple 1-4, 4-11) [I-1785] | 42.3 µM |
| Ac-[αAllylPro]D[tBuAla][B5(19)]DHAAF[hSer][PyrS2][3Thi][Bta]Q-NH2 (staple 1-4, 4-11; not fully specified; printed as Ac-PL3-Asp-Npg-B5-Asp-His-Ala-Ala-Phe-Hse-PyrS2-3Thi-BztA-Gln-NH2) [I-1793] | > 20 µM |
| Ac-[αAllylPro]D[tBuAla][B5(19)]D[Phe(F5)]AAF[hSer][PyrS2][3Thi][Bta]Q-NH2 (staple 1-4, 4-11) [I-1791] | > 20 µM |
| Ac-[αAllylPro]D[tBuAla][B5(5)]D[TfeGA″]AAF[Cha][PyrS2(4)][3Thi][Bta]Q-NH2 (staple 1-4, 4-11; not fully specified; reading uncertain) [I-1774] | 8.9 µM |
| Ac-[αAllylPro]D[tBuAla][B5(19)]DWAAFN[PyrS2][3Thi][Bta]Q-NH2 (staple 1-4, 4-11) [I-1788] | 33.9 µM |
| Ac-[αAllylPro]D[Nle][B5(19)]D[TfeGA]AAFL[PyrS2][3Thi][Bta]Q-NH2 (staple 1-4, 4-11) [I-1777] | 8.7 µM |
| Ac-[αAllylPro]D[tBuAla][B5(19)]D[hTyr]AAF[hSer][PyrS2][3Thi][Bta]Q-NH2 (staple 1-4, 4-11) [I-1786] | > 20 µM |
| Ac-[αAllylPro]D[hLeu(5-Me)][B5(5)]D[TfeGA]AAFL[PyrS2″][3Thi][Bta]Q-NH2 (staple 1-4, 4-11) [I-1772] | 6.8 µM |
| Ac-[αAllylPro]D[tBuAla][B5(5)]D[TfeGA]AAF[tBuAla][PyrS2″][3Thi][Bta]Q-NH2 (staple 1-4, 4-11) [I-1773] | 8.6 µM |
| Ac-[αAllylPro]D[tBuAla][B5(3)]DHAAFL[PyrS2(4)][3Thi][Bta]Q-NH2 (staple 1-4, 4-11; not fully specified; reading uncertain) [I-1795] | 22.8 µM |
| Ac-[αAllylPro]D[tBuAla][B5(3)]DHAAFL[PyrS2″][3Thi][Bta]Q-NH2 (staple 1-4, 4-11; not fully specified; printed as Ac-PL3-Asp-Npg-B5-Asp-His-Ala-Ala-Phe-Leu-PyrS2-3Thi-BztA-Gln-NH2) [I-1796] | > 20 µM |
| Ac-[αAllylPro]D[tBuAla][B5(19)]D[TfeGA]AAF[Nle][PyrS2][3Thi][Bta]Q-NH2 (staple 1-4, 4-11) [I-1776] | 10.5 µM |
| Ac-[αAllylPro]D[tBuAla][B5(3)]DHAAF[hSer][PyrS2″][3Thi][Bta]Q-NH2 (staple 1-4, 4-11; not fully specified; printed as Ac-PL3-Asp-Npg-B5-Asp-His-Ala-Ala-Phe-Hse-PyrS2-3Thi-BztA-Gln-NH2) [I-1794] | 37.7 µM |
| Ac-[αAllylPro]D[tBuAla][B5(19)]DYAAF[hSer][PyrS2][3Thi][Bta]Q-NH2 (staple 1-4, 4-11) [I-1783] | > 20 µM |
| Ac-[αAllylPro]D[tBuAla][B5(19)]D[Phe(F5)]AAFN[PyrS2][3Thi][Bta]Q-NH2 (staple 1-4, 4-11) [I-1790] | 34.4 µM |
